Results as given in patent publication US20240301061A1.

B1: humanized sp34 scFv BG561P (Fc fusion, not shown: a dimerising Fc or GST)
scFv: EVQLVESGGGLVQPGGSLRLSCAASGFTFNTYAMNWVRQAPGKGLEWVARIRSKYNNYATYYADSVKDRFTISRDDAKNSLYLQMNSLRAEDTAVYYCVRHGNFGNSYVSWFAYWGQGTLVTVSSGGGGSGGGGSGGGGSEIVLTQSPATLSVSPGERATLSCRSSTGAVTTSNYANWVQQKPGQAPRGLIGGTNKRAPGIPARFSGSLSGDEATLTISSLQSEDFAVYYCALWYSNLWVFGGGTKVEIK
B2: chimeric sp34 (antibody, V domains shown)
VH: EVQLVESGGGLVQPKGSLKLSCAASGFTFNTYAMNWVRQAPGKGLEWVARIRSKYNNYATYYADSVKDRFTISRDDSQSILYLQMNNLKTEDTAMYYCVRHGNFGNSYVSWFAYWGQGTLVTVSS
VL: QAVVTQESALTTSPGETVTLTCRSSTGAVTTSNYANWVQEKPDHLFTGLIGGTNKRAPGVPARFSGSLIGDKAALTITGAQTEDEAIYFCALWYSNLWVFGGGTKLTVL

Experiments:
CD3ε/δ [1] = biological target: CD3ε/δ (UniProt P07766); test: SPR
CD3ε/δ [2] = biological target: CD3ε/δ (UniProt P07766); test: SPR, antibody captured on anti-human Fc surface

CD3ε/δ, sequence (P07766 23-126, stated change not applied, chain 1 of 2): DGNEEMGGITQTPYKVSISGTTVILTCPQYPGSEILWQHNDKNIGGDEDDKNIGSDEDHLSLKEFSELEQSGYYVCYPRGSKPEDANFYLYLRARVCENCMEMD
CD3ε/δ, sequence (P04234 22-105, stated change not applied, chain 2 of 2, further chain): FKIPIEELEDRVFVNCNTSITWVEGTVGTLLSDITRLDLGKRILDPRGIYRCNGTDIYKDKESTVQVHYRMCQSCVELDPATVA

| Binder | Kd (CD3ε/δ [1]) | koff (CD3ε/δ [1]) | kon (CD3ε/δ [1]) | Kd (CD3ε/δ [2]) | koff (CD3ε/δ [2]) | kon (CD3ε/δ [2]) |
| --- | --- | --- | --- | --- | --- | --- |
| B1 | 25.9 nM | 0.00188 s⁻¹ | 72500 M⁻¹ s⁻¹ | – | – | – |
| B2 | – | – | – | 27.1 nM | 0.00296 s⁻¹ | 109000 M⁻¹ s⁻¹ |
